# Molecular target: GST-tagged full-length cortactin (UniProt Q60598)
# Assay: pull-down
# Chain of UniProt Q60598 (Q60598 whole entry): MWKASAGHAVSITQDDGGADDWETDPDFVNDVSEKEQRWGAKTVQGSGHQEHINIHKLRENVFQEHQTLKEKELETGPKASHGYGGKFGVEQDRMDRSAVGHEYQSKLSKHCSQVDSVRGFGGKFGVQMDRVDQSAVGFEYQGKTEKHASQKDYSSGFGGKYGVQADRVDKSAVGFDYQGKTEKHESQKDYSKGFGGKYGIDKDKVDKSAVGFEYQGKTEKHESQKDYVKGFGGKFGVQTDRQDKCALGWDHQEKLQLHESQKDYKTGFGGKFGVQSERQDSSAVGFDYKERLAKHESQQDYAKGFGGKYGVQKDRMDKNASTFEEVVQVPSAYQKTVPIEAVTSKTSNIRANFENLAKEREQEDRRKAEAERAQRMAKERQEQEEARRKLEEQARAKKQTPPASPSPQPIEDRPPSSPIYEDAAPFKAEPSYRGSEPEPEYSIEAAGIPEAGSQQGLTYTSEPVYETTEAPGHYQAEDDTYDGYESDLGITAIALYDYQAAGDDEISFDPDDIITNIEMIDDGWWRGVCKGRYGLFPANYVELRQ
substance,measurement,value
actin filaments (from UniProt P68139 1-377) (natural protein),Ki,461 nM

# From article PMC4555817
